Reference: PMC4551932, “Different motif requirements for the localization zipcode element of β-actin mRNA binding by HuD and ZBP1”
Numbering of substitutions follows the chain as printed.

How the values were obtained:
HuD (GST-HuD) [1] = target: T1, HuD (GST-HuD) (Rattus norvegicus (rat), UniProt O09032 1-385); test: EMSA; REMSA: 50 mM Tris-HCl pH 7.0, 150 mM NaCl, 5 mM MgCl2, 0.2 mM DTT, 0.25 mg/ml tRNA, 0.25 mg/ml BSA, room temperature 20 min; 20 fmol RNA and 3 pmol protein in 20 ul; conditions: protein: recombinant, tags: GST N-terminal (pGEX-2T), label: biotin at both ends
T1 sequence (O09032 whole entry): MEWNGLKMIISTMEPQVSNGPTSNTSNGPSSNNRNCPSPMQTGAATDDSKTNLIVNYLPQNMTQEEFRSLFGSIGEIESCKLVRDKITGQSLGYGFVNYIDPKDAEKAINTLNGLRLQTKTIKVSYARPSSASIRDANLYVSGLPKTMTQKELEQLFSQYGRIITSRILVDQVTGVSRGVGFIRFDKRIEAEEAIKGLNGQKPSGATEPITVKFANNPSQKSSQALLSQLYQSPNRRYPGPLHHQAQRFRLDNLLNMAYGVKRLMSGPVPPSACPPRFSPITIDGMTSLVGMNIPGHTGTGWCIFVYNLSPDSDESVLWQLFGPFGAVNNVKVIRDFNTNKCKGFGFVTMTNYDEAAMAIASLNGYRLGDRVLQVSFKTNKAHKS

ZBP1 (His-ZBP1) [2] = target: T2, ZBP1 (His-ZBP1) (Rattus norvegicus (rat), UniProt Q8CGX0 1-577); test: as above; conditions: protein: recombinant, tags: 6xHis (replaces GST in pGEX), label: biotin at both ends
T2 sequence (Q8CGX0 whole entry): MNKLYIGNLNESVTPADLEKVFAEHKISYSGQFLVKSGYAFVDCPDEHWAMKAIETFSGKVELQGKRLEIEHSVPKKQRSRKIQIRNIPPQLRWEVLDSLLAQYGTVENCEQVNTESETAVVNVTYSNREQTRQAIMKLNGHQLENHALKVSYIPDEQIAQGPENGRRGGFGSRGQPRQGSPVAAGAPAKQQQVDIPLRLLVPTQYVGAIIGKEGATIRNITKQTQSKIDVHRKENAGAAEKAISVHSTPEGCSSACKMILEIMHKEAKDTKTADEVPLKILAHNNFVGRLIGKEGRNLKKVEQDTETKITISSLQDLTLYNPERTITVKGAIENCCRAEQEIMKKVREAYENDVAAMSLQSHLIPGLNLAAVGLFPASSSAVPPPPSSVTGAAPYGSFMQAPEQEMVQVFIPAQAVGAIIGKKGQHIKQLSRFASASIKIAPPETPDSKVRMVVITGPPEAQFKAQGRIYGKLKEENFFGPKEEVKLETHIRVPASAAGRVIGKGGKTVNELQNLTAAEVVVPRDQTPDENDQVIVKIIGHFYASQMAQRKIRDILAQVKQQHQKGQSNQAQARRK

ZBP1 (His-ZBP1) [3] = target: T2, ZBP1 (His-ZBP1); test: EMSA; apparent Kd; REMSA: 50 mM Tris-HCl pH 7.0, 150 mM NaCl, 5 mM MgCl2, 0.2 mM DTT, 0.25 mg/ml tRNA, 0.25 mg/ml BSA, room temperature 20 min; 20 fmol RNA and 3 pmol protein in 20 ul; conditions: protein: recombinant, tags: 6xHis (replaces GST in pGEX), label: biotin at both ends
HuD (GST-HuD) [4] = target: T1, HuD (GST-HuD); test: competition EMSA; HuD displaces ZBP1 (4 pmol) from zipcode RNA; REMSA: 50 mM Tris-HCl pH 7.0, 150 mM NaCl, 5 mM MgCl2, 0.2 mM DTT, 0.25 mg/ml tRNA, 0.25 mg/ml BSA, room temperature 20 min; 20 fmol RNA and 3 pmol protein in 20 ul; conditions: protein: recombinant; tags: GST N-terminal (pGEX-2T); label: biotin at both ends; stem-loop, 16-nt terminal loop (predicted)
HuD (GST-HuD) [5] = target: T1, HuD (GST-HuD); test: EMSA; no difference from wild type; REMSA: 50 mM Tris-HCl pH 7.0, 150 mM NaCl, 5 mM MgCl2, 0.2 mM DTT, 0.25 mg/ml tRNA, 0.25 mg/ml BSA, room temperature 20 min; 20 fmol RNA and 3 pmol protein in 20 ul; conditions: protein: recombinant; tags: GST N-terminal (pGEX-2T); label: biotin at both ends; disrupted structure (predicted)
[6] = stem-loop, 10-nt terminal loop (predicted)

B1: delta-ACACCC zipcode (structured_RNA)
RNA: CGGACUGUUACUGAGCUGCGUUUUUUUCUUUGACAAAACCUAACUUGC
modifications: ACACCC deleted
- binding result (HuD (GST-HuD) [1]; [6]): binds
- binding result (ZBP1 (His-ZBP1) [2]; [6]): binds

B2: chicken zipcode (structured_RNA)
RNA: ACCGGACUGUUACCAACACCCACACCCCUGUGAUGAAACAAAACCCAUAAAUGC
- Kd (ZBP1 (His-ZBP1) [3]): 78.8 nM
- binding result (HuD (GST-HuD) [1]): no binding

B3: delta(ACACCC/U-rich) zipcode (structured_RNA)
RNA: CGGACUGUUACUGAGCUGCGGACAAAACCUAACUUGC
modifications: ACACCC and UUUCUUU deleted
- binding result (HuD (GST-HuD) [1]; altered structure (predicted)): no binding
- binding result (ZBP1 (His-ZBP1) [2]; altered structure (predicted)): no binding

B4: WT zipcode (rat, 54 nt) (structured_RNA)
RNA: CGGACUGUUACUGAGCUGCGUUUUACACCCUUUCUUUGACAAAACCUAACUUGC
- Kd (ZBP1 (His-ZBP1) [3]; stem-loop, 16-nt terminal loop (predicted)): 28.1 nM
- IC50 (HuD (GST-HuD) [4]): 171 nM

B5: AAMTCG zipcode (structure-disrupted mutant) (structured_RNA)
RNA: B4 RNA with A10C, A14G
modifications: structure disrupted; ACACCC and U-rich motifs intact
- Kd (ZBP1 (His-ZBP1) [3]; disrupted structure (predicted)): 315 nM
- binding result (HuD (GST-HuD) [5]): binds
